Reference: article PMC4232992

Target: Human myeloma IgG1 carbamylated with 0.1 M KCNO for 3 h, heat-aggregated (human)
Assay: ELISA

Substance: C1q, the first component of the classical complement pathway (complex)
- percent decrease in the deposition of C1q against native IgG1: 60%
